Measured values reported in patent US20210140973A1.

Assays:
[1] = target: human IgG4 purified from human serum (human); test: latex agglutination inhibition, IgG4-sensitized latex, antibody in R1; free human IgG4 in sample 500 mg/dL
[2] = target: human IgG4 purified from human serum (human); test: latex agglutination inhibition, IgG4-sensitized latex, antibody in R1; free human IgG4 in sample 125 mg/dL
[3] = target: human IgG4 purified from human serum (human); test: latex agglutination inhibition, IgG4-sensitized latex, antibody in R1; free human IgG4 in sample 0.0 mg/dL
[4] = target: human IgG4 purified from human serum (human); test: latex agglutination inhibition, IgG4-sensitized latex, antibody in R1; free human IgG4 in sample 31.3 mg/dL
[5] = target: human IgG4 purified from human serum (human); test: latex agglutination inhibition, IgG4-sensitized latex, antibody in R1; free human IgG4 in sample 250 mg/dL
[6] = target: human IgG4 purified from human serum (human); test: SPR (Biacore), IgG4 immobilized
[7] = target: human IgG4 purified from human serum (human); test: latex agglutination inhibition, IgG4-sensitized latex, antibody in R1; free human IgG4 in sample 1000 mg/dL
[8] = target: human IgG4 purified from human serum (human); test: SPR (Biacore), IgG4 immobilized on chip by amino coupling, antibody as analyte

human IgG4 purified from human serum (human), sequence (constant, as listed by the source limits assumed): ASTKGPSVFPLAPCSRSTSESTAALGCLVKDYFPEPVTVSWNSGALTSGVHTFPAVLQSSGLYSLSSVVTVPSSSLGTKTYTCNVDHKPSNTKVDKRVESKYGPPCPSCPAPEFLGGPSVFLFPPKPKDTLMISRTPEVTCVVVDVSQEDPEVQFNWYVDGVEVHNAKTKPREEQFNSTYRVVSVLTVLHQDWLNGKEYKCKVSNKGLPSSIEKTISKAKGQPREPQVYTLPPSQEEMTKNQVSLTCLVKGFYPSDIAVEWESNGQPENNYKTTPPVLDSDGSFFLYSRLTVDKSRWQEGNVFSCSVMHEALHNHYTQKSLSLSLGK

ratio of binding rate constant ka to those of the MaI4-08 and MaI4-09-produced antibodies [6]: < 0.01 fold
Kd [8]: 408 nM
koff [8]: 0.000681 s⁻¹
kon [8]: 1670 M⁻¹ s⁻¹
Substance: commercially available antibody HP6025 (Millipore Corporation)
Absorbance change amount in 800 nm [1]: 0.0031
Absorbance change amount in 800 nm [2]: 0.0033
Absorbance change amount in 800 nm [3]: 0.003
Absorbance change amount in 800 nm [4]: 0.0036
Absorbance change amount in 800 nm [5]: 0.0034
Absorbance change amount in 800 nm [7]: 0.003
